Assay [1] has as its target T1, native human MET on living cells (human, UniProt P08581 25-1390). Put plainly: cell-based or functional assay.
For assay [2], the target named is T2, native mouse MET on living cells (mouse, UniProt P16056 25-1379). Put plainly: cell-based or functional assay.
Assay [3] deals with T1, native human MET on living cells. Kind of assay: cell-based or functional assay. This is another data set of the same source.
The target of assay [4] is T2, native mouse MET on living cells. Put plainly: cell-based or functional assay. This is another data set of the same source.
Assay [5] deals with human MET ECD mutant A (mutations 1, 2, 3) (human) (UniProt P08581). Kind of assay: ELISA, WT or mutant hMET ECD coated. A general note: In an ELISA, binding on a coated surface is turned into a signal by an enzyme label.
For assay [6], the target named is human MET ECD mutant D (mutations 1, 2) (human) (UniProt P08581). Kind of assay: ELISA, WT or mutant hMET ECD coated.
Assay [7] addresses human MET ECD mutant E (mutations 2, 3, 4) (human) (UniProt P08581). Put plainly: ELISA, WT or mutant hMET ECD coated.
In assay [8] the target is human MET ECD mutant H (mutations 2, 4) (human) (UniProt P08581). Put plainly: ELISA, WT or mutant hMET ECD coated.
In assay [9] the target is T3, human MET ECD (human, UniProt P08581 25-932).
T3 construct: range 1-932; recombinant; range as printed includes the signal peptide; also called hMET; hMET ECD
Put plainly: ELISA, MET ECD coated, mAb 0-20 nM. The protocol:
(§1) Production (by transient transfection of mammalian cells) and purification (by protein A affinity chromatography) of the resulting chimeric llama-human IgG1 molecules was outsourced to U-protein Express. Binding of chimeric mAbs to MET was determined by ELISA using hMET or mMET ECD in solid phase and increasing concentrations of antibodies (0-20 nM) in solution. […] Binding capacity (EMAX) varied from antibody to antibody, possibly due to partial epitope exposure in the immobilized antigen, but was similar in the human and mouse setting.

Assay [10] addresses T4, mouse MET ECD (mouse, UniProt P16056 25-931).
T4 construct: range 1-931; recombinant; range as printed includes the signal peptide; also called mMET; mMET ECD
Kind of assay: ELISA, MET ECD coated, mAb 0-20 nM. As for the experimental part:
as §1

Assay [11] concerns the target T3, human MET ECD. Kind of assay: ELISA, WT or mutant hMET ECD coated. The protocol:
Using human MET as a template, we mutagenized each of these residues in different permutations, generating a series of MET mutants that are fully human except for specific residues, which are llama. Next, we tested the affinity of selected SEMA-binding mAbs (71D6, 71C3, 71D4, 71A3, 71G2) and PSI-binding mAbs (76H10 and 71G3) for these MET mutants by ELISA. To this end, the various MET proteins were immobilized in solid phase (100 ng/well in a 96-well plate) and then exposed to increasing concentrations of antibodies (0-50 nM) solution. […] Wild-type human MET was used as positive control.
TABLE 24 The epitopes of MET responsible for agonistic antibody binding represent residues conserved among H. sapiens, M. musculus, R. norvegicus, M. fascicularis but not among the same species and L. glama. The relevance of residues conserved among human, mouse, rat, cynomolgus monkey but not llama MET for binding to agonistic mAbs was tested by ELISA. Wild-type (WT) or mutant (MT) human MET ECD was immobilized in solid phase and exposed to increasing concentrations of mAbs in solution. […] All binding values were normalized to the WT protein and are expressed as % binding (EMAX) compared to WT MET.

Assay [12] has as its target T1, native human MET on living cells. Put plainly: FACS, A549 cells.
Assay [13] has as its target T2, native mouse MET on living cells. Put plainly: FACS, MLP29 cells. (In general: Flow cytometry measures light scatter and fluorescence of single cells or particles in a stream.)
Assay [14] concerns the target T1, native human MET on living cells. Put plainly: cell-based or functional assay. This is another data set of the same source.
In assay [15] the target is T2, native mouse MET on living cells. Put plainly: cell-based or functional assay. This is another data set of the same source.

Data on seven molecules can be found in patent US20200407452A1 (published 2020).

B1: 71C3 chimeric llama-human IgG1 mAb (antibody, V domains shown)
VH: QLQLVESGGGLVQPGGSLRLSCAASGFTFSSHAMSWVRQAPGKGLEWVSAINSGGGSTSYADSVKGRFTISRDNAKNTLYLQMNSLKPEDTAVYYCAKELRFDLARYTDYEAWDYWGQGTQVTVSS
VL: SYELTQPSALSVTLGQTAKITCQGGSLGSSYAHWYQQKPGQAPVLVIYDDDSRPSGIPERFSGSSSGGTATLTISGAQAEDEGDYYCQSADSSGNAAVFGGGTHLTVL
notes: human IgG1 CH1-CH2-CH3 and human CL lambda
For the molecule B1, in assay [1], the “phospho-MET ELISA EMAX, A549 cells” value turned out to be 86.2 % HGF activity. Besides, in assay [2], the “phospho-MET ELISA EMAX, MLP29 cells” value is 98.8 % HGF activity. Also, the “protection from staurosporine-induced apoptosis EC50, MCF10A cells” value in [3] came to 0.0319 µM. Besides, the “protection from staurosporine-induced apoptosis EMAX, MCF10A cells” value in assay [3] was found to be 50.2%. The “protection from staurosporine-induced apoptosis EC50, MLP29 cells” value in assay [4] is 0.031 µM. In addition, the “protection from staurosporine-induced apoptosis EMAX, MLP29 cells” value in [4] was 51.3%. Moreover, the % binding (EMAX) vs WT MET ECD came out at 99.8% in [5]; 102% in assay [6]; 59.6% in [7]; 61.6% in [8]; 100% in assay [11]. For the same molecule, the results for the EMAX in assay [9] and in [10] were 2.46 OD450 AU and 2.24 OD450 AU, respectively.

B2: 71A3 chimeric llama-human IgG1 mAb (antibody, V domains shown)
VH: EVQLVESGGGLVQPGGSLRLSCAASGFSFKDYDITWVRQAPGKGLEWVSTITSRSGSTSYVDSVKGRFTISGDNAKNTLYLQMNSLKPEDTAVYYCAKVYATTWDVGPLGYGMDYWGKGTLVTVSS
VL: SYELTQPSALSVTLGQTAKITCQGGSLGSSYAHWYQQKPGQAPVLVIYDDDSRPSGIPERFSGSSSGGTATLTISGAQAEDEGDYYCQSADSSGNAAVFGGGTHLTVL
notes: as for B1
As to B2, in [1], the “phospho-MET ELISA EMAX, A549 cells” value came out at 86.6 % HGF activity. Further, the “phospho-MET ELISA EMAX, MLP29 cells” value in assay [2] turned out to be 96 % HGF activity. Moreover, in assay [3], the “protection from staurosporine-induced apoptosis EC50, MCF10A cells” value is < 0.0005 µM. Further, the “protection from staurosporine-induced apoptosis EMAX, MCF10A cells” value in [3] was determined as 71.7%. Besides, in [4], the “protection from staurosporine-induced apoptosis EC50, MLP29 cells” value was < 0.0005 µM. The “protection from staurosporine-induced apoptosis EMAX, MLP29 cells” value in assay [4] worked out at 70.5%. For the same molecule, the % binding (EMAX) vs WT MET ECD worked out at 117% in [5]; 128% in [6]; 65.4% in assay [7]; 76.7% in assay [8]; 100% in assay [11]. In addition, the EMAX in assay [9] came out at 2.4 OD450 AU; in assay [10], 2.73 OD450 AU.

B3: 71D4 chimeric llama-human IgG1 mAb (antibody, V domains shown)
VH: ELQLVESGGGLVQPGGSLRLSCAASGFTFSGYGMSWVRQAPGKGLEWVSDINSGGGSTSYADSVKGRFTISRDNAKNTLYLQMNSLKPEDTAVYYCAKDMRLYLARYNDYEAWDYWGQGTQVTVSS
VL: SSALTQPSALSVTLGQTAKITCQGGSLGSSYAHWYQQKPGQAPVLVIYDDDSRPSGIPERFSGSSSGGTATLTISGAQAEDEGDYYCQSADSSGNAAVFGGGTHLTVL
notes: as for B1
On to B3, for which the “phospho-MET ELISA EMAX, A549 cells” value in assay [1] turned out to be 84.6 % HGF activity. The “phospho-MET ELISA EMAX, MLP29 cells” value in [2] worked out at 95.3 % HGF activity. Also, in assay [3], the “protection from staurosporine-induced apoptosis EC50, MCF10A cells” value worked out at 0.0302 µM. Moreover, the “protection from staurosporine-induced apoptosis EMAX, MCF10A cells” value in assay [3] is 51.7%. Besides, in assay [4], the “protection from staurosporine-induced apoptosis EC50, MLP29 cells” value stood at 0.0298 µM. For the same molecule, in [4], the “protection from staurosporine-induced apoptosis EMAX, MLP29 cells” value worked out at 52.1%. The % binding (EMAX) vs WT MET ECD in [5] was 114%; in [6] it was 120%; in [7], 57.2%; in [8], 58.7%; in [11], 100%. Further, the results for the EMAX in assay [9] and in assay [10] were 1.43 OD450 AU and 1.17 OD450 AU, respectively.

B4: 72F8 chimeric llama-human IgG1 mAb (antibody, V domains shown)
VH: ELQLVESGGGLVQPGGSLRLSCAASGFTFSNYVMSWVRQAPGKGLEWVSDTNSGGSTSYADSVKGRFTISRDNAKNTLYLQMNSLKPEDTALYYCARSFFYGMNYWGKGTQVTVSS
VL: QSALTQPPSLSASPGSSVRLTCTLSSGNNIGSYDISWYQQKAGSPPRYLLNYYTDSRKHQDSGVPSRFSGSKDASANAGLLLISGLQPEDEADYYCSAYKSGSYRWVFGGGTHVTVL
notes: as for B1
Regarding B4, in assay [1], the “phospho-MET ELISA EMAX, A549 cells” value was 69.7 % HGF activity. Besides, in assay [2], the “phospho-MET ELISA EMAX, MLP29 cells” value amounted to 66.8 % HGF activity. Also, in assay [3], the “protection from staurosporine-induced apoptosis EC50, MCF10A cells” value is > 0.032 µM and the “protection from staurosporine-induced apoptosis EMAX, MCF10A cells” value worked out at 35.8%. Also, in assay [4], the “protection from staurosporine-induced apoptosis EC50, MLP29 cells” value was > 0.032 µM and the “protection from staurosporine-induced apoptosis EMAX, MLP29 cells” value came out at 43.8%. This molecule also had an EMAX in assay [9] of 2.78 OD450 AU. Further, the EMAX in assay [10] came to 2.9 OD450 AU.

B5: 71G2 chimeric llama-human IgG1 mAb (antibody, V domains shown)
VH: EVQLQESGGGLVQPGGSLRLSCAASGFTFSIYDMSWVRQAPGKGLEWVSTINSDGSSTSYVDSVKGRFTISRDNAKNTLYLQMNSLKPEDTAVYYCAKVYGSTWDVGPMGYGMDYWGKGTLVTVSS
VL: SSALTQPSALSVSLGQTARITCQGGSLGSSYAHWYQQKPGQAPVLVIYGDDSRPSGIPERFSGSSSGGTATLTISGAQAEDEDDYYCQSTDSSGNTVFGGGTRLTVL
notes: human IgG1 CH1-CH2-CH3 and human CL lambda; also called 71G2 Human IgG1/lambda
Take B5: the EMAX worked out at 137 % CTR in assay [12], 131 % CTR in [13], 3.09 OD450 AU in assay [9] and 3.17 OD450 AU in [10]. The “phospho-MET ELISA EMAX, A549 cells” value in [1] worked out at 101 % HGF activity. Also, the “phospho-MET ELISA EMAX, MLP29 cells” value in assay [2] came out at 110 % HGF activity. Moreover, the “protection from staurosporine-induced apoptosis EC50, MCF10A cells” value in assay [3] amounted to 0.00106 µM. In addition, the “protection from staurosporine-induced apoptosis EMAX, MCF10A cells” value in [3] turned out to be 64.8%. In assay [4], the “protection from staurosporine-induced apoptosis EC50, MLP29 cells” value was 0.00199 µM. Besides, the “protection from staurosporine-induced apoptosis EMAX, MLP29 cells” value in assay [4] was found to be 58.3%. The “A549 MET act. (EMAX, % HGF)” value in [14] amounted to 106 % HGF. Besides, the “LOC br. m. (branch n.)” value in assay [14] was 31.7 branches per spheroid. Besides, the “MLP29 MET act. (EMAX, % HGF)” value in assay [15] came to 110 % HGF. In assay [15], the “MLP29 br. m. (branch n.)” value amounted to 45 branches per spheroid. The % binding (EMAX) vs WT MET ECD in [5] was 92.1%; in [6], 114%; in assay [7], 41.4%; in [8], 40.2%; in assay [11], 100%.

B6: 71G2 llama-mouse chimeric mAb (mouse IgG1/lambda) (antibody, V domains shown)
VH: EVQLQESGGGLVQPGGSLRLSCAASGFTFSIYDMSWVRQAPGKGLEWVSTINSDGSSTSYVDSVKGRFTISRDNAKNTLYLQMNSLKPEDTAVYYCAKVYGSTWDVGPMGYGMDYWGKGTLVTVSS
VL: SSALTQPSALSVSLGQTARITCQGGSLGSSYAHWYQQKPGQAPVLVIYGDDSRPSGIPERFSGSSSGGTATLTISGAQAEDEDDYYCQSTDSSGNTVFGGGTRLTVLG
Regarding B6, in assay [14], the “LOC br. m. (branch n.)” value is 29.8 branches per spheroid. In addition, the “MLP29 br. m. (branch n.)” value in assay [15] amounted to 41.2 branches per spheroid.

B7: 71G3 llama-mouse chimeric mAb (mouse IgG1/lambda) (antibody, V domains shown)
VH: QVQLVESGGGLVQPGGSLRVSCAASGFTFSTYYMSWVRQAPGKGLEWVSDIRTDGGTYYADSVKGRFTMSRDNAKNTLYLQMNSLKPEDTALYYCARTRIFPSGYDYWGQGTQVTVSS
VL: QAVVTQEPSLSVSPGGTVTLTCGLSSGSVTTSNYPGWFQQTPGQAPRTLIYNTNSRHSGVPSRFSGSISGNKAALTIMGAQPEDEADYYCSLYPGSTTVFGGGTHLTVLG
Regarding B7, in assay [14], the “LOC br. m. (branch n.)” value was 20.8 branches per spheroid. Moreover, the “MLP29 br. m. (branch n.)” value in assay [15] turned out to be 30.1 branches per spheroid.
